Assay results reported in patent US20250026782A1, “ACTIVATING APPENDAGES TO INDUCE POLYPHARMACOLOGY IN PEPTIDE HORMONE ANALOGUES, INCLUDING DUAL GLP-1R / GIP AGONISM” (Wisconsin Alumni Research Foundation, priority 2023, published 2025).
“Also recorded” adds a separate entry of the source. No end group written: not given here. B4 T2‑OMe = not defined here

Key:
GLP-1 receptor = GLP-1 receptor (Homo sapiens, UniProt P43220); experiment: cAMP production assay, activation of GLP-1R (GloSensor HEK293 cells); format: cell-based; details: result in words, EC50 values only in figures
Chain of GLP-1 receptor (P43220 24-463): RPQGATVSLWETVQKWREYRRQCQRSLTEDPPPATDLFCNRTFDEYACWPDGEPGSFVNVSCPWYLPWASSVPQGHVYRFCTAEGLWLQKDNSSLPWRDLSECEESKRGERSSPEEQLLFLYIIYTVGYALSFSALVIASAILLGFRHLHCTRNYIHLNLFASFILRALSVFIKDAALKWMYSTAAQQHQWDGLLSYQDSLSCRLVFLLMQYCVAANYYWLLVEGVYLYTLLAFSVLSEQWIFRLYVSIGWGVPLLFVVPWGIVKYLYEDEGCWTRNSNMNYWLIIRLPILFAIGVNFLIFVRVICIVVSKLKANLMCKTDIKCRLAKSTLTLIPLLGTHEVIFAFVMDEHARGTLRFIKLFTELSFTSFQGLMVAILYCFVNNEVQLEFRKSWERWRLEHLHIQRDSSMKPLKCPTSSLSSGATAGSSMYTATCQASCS

GIP receptor = target: T1, GIP receptor (Homo sapiens, UniProt P48546); experiment: cAMP production assay, activation of GIPR (HEK 293 GS cells stably expressing GIPR); details: result in words, EC50 values only in figures
T1 sequence (P48546 22-466): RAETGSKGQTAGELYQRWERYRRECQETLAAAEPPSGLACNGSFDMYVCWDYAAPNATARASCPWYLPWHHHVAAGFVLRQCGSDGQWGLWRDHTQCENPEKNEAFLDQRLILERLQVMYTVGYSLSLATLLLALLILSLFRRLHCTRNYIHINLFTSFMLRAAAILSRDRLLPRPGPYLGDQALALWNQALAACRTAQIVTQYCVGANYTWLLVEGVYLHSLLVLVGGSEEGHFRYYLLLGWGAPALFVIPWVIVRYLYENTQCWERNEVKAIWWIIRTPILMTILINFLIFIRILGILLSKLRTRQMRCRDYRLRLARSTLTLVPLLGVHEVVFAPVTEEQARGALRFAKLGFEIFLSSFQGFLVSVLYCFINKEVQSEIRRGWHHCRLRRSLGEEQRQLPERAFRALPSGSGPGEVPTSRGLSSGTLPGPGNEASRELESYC

[1] = degraded by peptidases; cited from earlier work

activation of the GLP-1 receptor (agonist activity / potency) (GLP-1 receptor)	activation of the GLP-1 receptor (agonist activity / potency) (GLP-1 receptor; listed as TZP)	activation of the GIP receptor (agonist activity / potency) (GIP receptor; listed as TZP)	Substance	activation of the GIP receptor (agonist activity / potency) (GIP receptor)	half-life in vivo [1]	activation of the GIP receptor (agonist activity / potency) (GIP receptor; listed as GLP-1*)
does not activate the GLP-1 receptor			GIP (1-30): amidated truncated form of glucose-dependent insulinotropic polypeptide, YAEGTFISDY SIAMDKIHQQ DEVNWLLAQK-NH2			
			GLP-1 16 B4 T2-OMe: GLP-1 with position 16 B4 T2 side chain, OMe variant of bisphenol (HAEGTFTSDK(B4 T2‑OMe)SSYLEGQAAKEFIAWLVKGRG; reading uncertain)	greater activity than other tested appendages		
			GLP-1: glucagon-like peptide-1, native hormone, HAEGTFTSDVSSYLEGQAAKEFIAWLVKGRG	does not activate the GIP receptor; also recorded: no effect on the GIP receptor; also recorded: does not activate the GIPR	< 2 min	acts as an agonist; also recorded: agonists of both GLP-1 receptor and GIP receptor; also recorded: greater activity than other tested appendages
activation of the GLP-1 receptor	dual GLP-1R/GIPR	dual GLP-1R/GIPR	tirzepatide	activation of the GIP receptor		
